Target: Cathepsin L (UniProt P07711)
Experiment: cell-based or functional assay

**Q.** “Wild Type SerpinB3 (from UniProt P29508 1-390)” was tested. Which CatL inhibition (residual activity on Z-FR-AMC after 2 min incubation with serpin, 1:5 protease:serpin) did it give?
**A.** Its CatL inhibition (residual activity on Z-FR-AMC after 2 min incubation with serpin, 1:5 protease:serpin) is 95%.

Reference: patent US20240350597A1, “PROTEASE INHIBITORS” (University College Dublin, priority 2023, published 2024)
